Measured values reported in patent US11767343B2, “Peptide probe for recognition of G-quadruplex and use thereof in detection of G-quadruplex in cell” (Changzhi Medical College, priority 2020, dated 2023).

Biological target: TB-1
Assay: ELISA binding of G4P to immobilized biotinylated oligonucleotide
Conditions: G4, Bulge, read-out: Kd (nM) ± SD

B1: G4P: Polypeptide probe: two RHAU23 G4-binding domains, linker of three GTGSGA hexapeptides, C-terminal 3xFLAG tag, N-terminal HIS tag; SEQ ID NO: 4 (protein)
chain: MGSSHHHHHHSSGLVPRGSHMHPGHLKGREIGMWYAKKQGQKNKGTGSGAGTGSGAGTGSGAHPGHLKGREIGMWYAKKQGQKNKGTGSGADYKDHDGDYKDHDIDYKDDDDK
modifications: Fully synthetic
Kd: 0.74 ± 0.05 nM
